Here are results for two molecules from publication PMC5750235, “Trapping IgE in a closed conformation by mimicking CD23 binding prevents and disrupts FcεRI interaction” (Nature Communications, 2018).

One data set has as its target T1, IgE Fc Cε3–4 fragment (human, UniProt P01854, (N-acetylglucosamine)2(mannose)5 hepta-saccharide on N394).
T1 construct: human IgE heavy chain constant region, domains Cε3 and Cε4, as found in the crystals; Not a designed construct: the crystals held this fragment and not the Cε2–4 that was expected; also called IgE Cε3–4; source: HEK-293; a small fraction in the purified IgE Fc Cε2–4 preparation, crystallized with 026 sdab
In words: crystal structure; 026 sdab:IgE Fc complex, 5 mg/ml in 20 mM HEPES, 50 mM NaCl, pH 7.2; sitting drops, 0.1 M imidazole pH 7.0, 11-12% PEG 20,000; 3.4 Å. The note with it: both partners purified.

Data set [1] deals with the molecule itself. Described as above.

B1: 026 sdab (VHH)
VHH: EVQLLESGGGLVQPGGSLRLSCAASGFTFGNYDMAWVRQAPGKRPEWVSSIDTGGDITHYADSVKGRFTISRDNAKNTLYLQMNSLRPEDTAVYWCATDEEYALGPNEFDYYGQGTLVTVSS
notes: llama-derived, humanized single-domain antibody; Synthetic gene; also called sdab 026; anti-IgE sdab 026
For the molecule B1, the “stoichiometry N” value with IgE Fc Cε3–4 fragment was determined as 2 sdab per IgE Fc.

B2: IgE Fc Cε3–4 fragment (domain or fragment, human)
chain: RGVSAYLSRPSPFDLFIRKSPTITCLVVDLAPSKGTVNLTWSRASGKPVNHSTRKEEKQRNGTLTVTSTLPVGTRDWIEGETYQCRVTHPHLPRALMRSTTKTSGPRAAPEVYAFATPEWPGSRDKRTLACLIQNFMPEDISVQWLHNEVQLPDARHSTTQPRKTKGSGFFVFSRLEVTRAEWEQKDEFICRAVHEAASPSQTVQRAVSVNP
modifications: (N-acetylglucosamine)2(mannose)5 hepta-saccharide on N394
notes: human IgE heavy chain constant region, domains Cε3 and Cε4, as found in the crystals; Not a designed construct: the crystals held this fragment and not the Cε2–4 that was expected; also called IgE Cε3–4; source: HEK-293; a small fraction in the purified IgE Fc Cε2–4 preparation, crystallized with 026 sdab
Consider B2, for which, in data set [1], the binding result is “binds”.

In general, stoichiometry N refers to the number of molecules, sites or subunits per partner or assembly.
